Values belong to the molecule of their own block, whether it stands above or below them.
Biological target: T1, Human Plasma Kallikrein (Homo sapiens, UniProt P03952)
T1 construct: purchased Molecular Innovations, Inc, USA
Test: Phage selection of leader-free SynLib1 library modified by Celf ProcM enzyme-leader fusions on biotinylated kallikrein (output titre)
Assay type: binding
Settings: for difference in titre using 9.75 nM kallikrein and using 0 nM kallikrein: R3
Experimental: Human Plasma Kallikrein (Molecular Innovations, Inc, USA) at 1.15 mg/ml (13 μM) solution in 4 mM acetate, 150 mM NaCl, pH 5.3 was biotinylated using NHS-PEG4-Biotin from the EZ-link micro-PEO4-biotinylation kit (Pierce Biotechnology, USA). 680 μl of water was added to the contents of the pre-weighed vial of biotinylation reagent to make a 5 mM solution. 1 μl of this solution was added to 100 μl of the kallikrein solution. This was incubated at RT for 1 hour prior to the separation of the biotinylated protein from the unreacted biotin, using a 2 ml Spin Desalting column (Pierce Biotechnology, USA). The volume of the kallikrein was made up to 350 μl with PBS (Formedium Ltd, UK) and was loaded onto the spin column which had been equilibrated with PBS (as per the manufacturer's instructions). When this solution had been absorbed into the column matrix, a further 50 μl of PBS was added on top and the column was spun in a centrifuge at 1000 g for 2 min. 395 μl of solution was collected, making the concentration of the biotinylated kallikrein about 3.25 μM.
150 μl of stock leader-free SynLib1 library (4.5e11 phage per μl) was added to 1850 μl of TE buffer, 2 μl 1 M TCEP (Melford Biolaboratories Ltd, UK) and incubated at RT for 20 minutes to reduce the peptides on the phage. 400 μl of 2.5 M NaCl, 20% w/v PEG 8000 was added, incubated at RT for five minutes and the precipitated phages were collected by centrifugation at 15000 g for five minutes. The supernatant was discarded and the phages were resuspended in 150 μl of 25 mM Tris pH 7.5 (Sigma Aldrich, Austria), 1 μM TCEP.
Selections are performed by removing streptavidin-binding clones by pre-exposing the library to streptavidin resin, which is then discarded, mixing the library with decreasing concentrations of biotinylated target for an hour at each round of selection, capture of the biotinylated target and thereby any phage binding the target with magnetic streptavidin resin followed by extensive washing of the resin. Finally, the washed resin has the phage eluted from the target by exposure to a low pH solution, neutralisation of the solution and infection of E. coli by the eluted phage.
Round 1 (R1) of the selection was performed by adding 50 μl of LodeStars streptavidin resin (Agilent Technologies, USA), from which the liquid had been removed by magnetic capture, to the modified phage solution for 30 minutes to capture the peptide sequence that bind to streptavidin (deselection). The resin was captured magnetically and the phage-containing supernatant was collected and made up to 500 μl with 25 mM Tris pH 7.5, 0.05% Tween 20 (Melford Biolaboratories Ltd, UK). Biotinylated kallikrein was added to 100 nM, and mixed at RT for 1 hour prior to processing on a KingFisher mL (Thermo Fisher, Austria) magnetic particle washer. The processing involved the KingFisher transferring 25 μl of streptavidin resin to the phage solution and mixing for five minutes. The resin/phage were then collected and washed in 8×1 ml of PBS+0.05% Tween 20 (PBST). The resin was then mixed in 50 μl of 50 mM glycine pH 2.2 (Melford Biolaboratories Ltd, UK) for five minutes to elute the phage and the resin was removed. The phage-containing supernatant was neutralised with 10 μl of 1 M Tris pH 8.0 and added to 1 ml of TG1 cells at A600 of 0.6 followed by incubation at 37° C., 250 rpm for 1 hour. The phage titre was determination by adding 4 μl of culture to 96 μl of water, which was used to make five, 10-fold dilutions; 10 μl from each of these was spotted onto an LB+tetracycline agar plate. The remainder of the culture was made up to 11 ml with 2TY plus tetracycline and incubated at 37° C., 250 rpm overnight.
10 ml of overnight culture was reduced with 10 μl of 1 M TCEP for 20 min at RT followed by removal of the cells by centrifugation at 15000 g for five minutes. […]

T1 sequence (P03952 20-638): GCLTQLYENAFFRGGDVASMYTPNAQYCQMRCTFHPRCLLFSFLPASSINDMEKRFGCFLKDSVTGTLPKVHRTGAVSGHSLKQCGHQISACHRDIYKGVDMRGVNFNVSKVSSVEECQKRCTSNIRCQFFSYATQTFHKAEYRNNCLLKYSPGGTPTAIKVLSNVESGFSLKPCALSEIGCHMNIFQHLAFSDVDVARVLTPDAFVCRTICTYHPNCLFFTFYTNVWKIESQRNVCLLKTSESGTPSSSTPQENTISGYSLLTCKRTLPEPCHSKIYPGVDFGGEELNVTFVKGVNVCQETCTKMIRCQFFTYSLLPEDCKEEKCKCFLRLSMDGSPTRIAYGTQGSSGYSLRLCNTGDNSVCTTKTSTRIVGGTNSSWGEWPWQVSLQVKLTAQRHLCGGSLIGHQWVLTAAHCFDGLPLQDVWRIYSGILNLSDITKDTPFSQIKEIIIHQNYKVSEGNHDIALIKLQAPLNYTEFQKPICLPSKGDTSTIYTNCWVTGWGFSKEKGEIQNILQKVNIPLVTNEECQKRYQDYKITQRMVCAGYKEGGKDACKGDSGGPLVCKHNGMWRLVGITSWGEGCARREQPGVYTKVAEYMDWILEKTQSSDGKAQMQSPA

output titre (number of phages eluted at the end of the round) (R1, 100 nM kallikrein): 4.2e6
output titre (number of phages eluted at the end of the round) (R2, 33 nM kallikrein): 2.9e5
difference in titre using 9.75 nM kallikrein and using 0 nM kallikrein: 6.5 fold
output titre (number of phages eluted at the end of the round) (R3, 0 nM kallikrein): 5.3e4
output titre (number of phages eluted at the end of the round) (R3, 9.75 nM kallikrein): 3.4e5
B1: CelfProcM10: C-terminal leaderA4.3 ProcM enzyme-leader fusion, 10-pair linker, used to modify leader-free SynLib1 (protein)
chain: MSEEQLKAFIAKVQADTSLQEQLKAEGADVVAIAKAAGFTITTEDLNSHRQNLTDDELEGVAGGSASGSGSGSAMESPSSWKTSWLAAIAPDEPHKFDRRLEWDELSEENFFAALNSEPASLEEDDPCFEEALQDALEALKAAWDLPLLPVDNNLNRPFVDVWWPIRCHSAESLRQSFVSDSAGLADEIFDQLADSLLDRLCALGDQVLWEAFNKERTPGTMLLAHLGAAGDGSGPPVREHYERFIQSHRRNGLAPLLKEFPVLGRLIGTVLSLWFQGSVEMLQRICADRTVLQQCFAIPCGHHLKTVKQGLSDPHRGGRAVAVLEFADPNSTANSSMHVVYKPKDMAVDAAYQATLADLNTHSDLSPLRTLAIHNGNGYGYMEHVVHHLCANDKELTNFYFNAGRLTALLHLLGCTDCHHENLIACGDQLLLIDTETLLEADLPDHISDASSTTAQPKPSSLQKQFQRSVLRSGLLPQWMFLGESKLAIDISALGMSPPNKPERIALGWLGFNSDGMMPGRVSQPVEIPTSLPVGIGEVNPFDRFLEDFCDGFSMQSEALIKLRNRWLDVNGVLAHFAGLPRRIVLRATRVYFTIQRQQLEPTALRSPLAQALKLEQLTRSFLLAESKPLHWPIFAAEVKQMQHLDIPFFTHLIDADALQLGGLEQELPGFIQTSGLAAAYERLRNLDTDEIAFQLRLIRGAVEARELHTTPESSPTLPPPATPEALMSSSAETSLEAAKRIAHRLLELAIRDSQGQVEWLGMDLGADGESFSFGPVGLSLYGGSIGIAHLLQRLQAQQVSLMDADAIQTAILQPLVGLVDQPSDDGRRRWWRDQPLGLSGCGGTLLALTLQGEQAMANSLLAAALPRFIEADQQLDLIGGCAGLIGSLVQLGTESALQLALRAGDHLIAQQNEEGAWSSSSSQPGLLGFSHGTAGYAAALAHLHAFSADERYRTAAAAALAYERARFNKDAGNWPDYRSIGRDSDSDEPSFMASWCHGAPGIALGRACLWGTALWDEECTKEIGIGLQTTAAVSSVSTDHLCCGSLGLMVLLEMLSAGPWPIDNQLRSHCQDVAFQYRLQALQRCSAEPIKLRCFGTKEGLLVLPGFFTGLSGMGLALLEDDPSRAVVSQLISAGLWPTESASGSGSGSGSTSGSGSGSAMSEEQLKAFIAKVQADTSLQEQLKAEGADVVAIAKAAGFTITTEDLNSHRQNLTDDELEGVAGG
modifications: Enzyme-Leader-Fusion

output titre (number of phages eluted at the end of the round) (R1, 100 nM kallikrein): 6.4e5
output titre (number of phages eluted at the end of the round) (R2, 33 nM kallikrein): 5.3e5
difference in titre using 9.75 nM kallikrein and using 0 nM kallikrein: 10 fold
output titre (number of phages eluted at the end of the round) (R3, 0 nM kallikrein): 5.0e4
output titre (number of phages eluted at the end of the round) (R3, 9.75 nM kallikrein): 5.0e5
B2: CelfProcM5: C-terminal leaderA4.3 ProcM enzyme-leader fusion, 5-pair linker, used to modify leader-free SynLib1 (protein)
chain: MSEEQLKAFIAKVQADTSLQEQLKAEGADVVAIAKAAGFTITTEDLNSHRQNLTDDELEGVAGGSASGSGSGSAMESPSSWKTSWLAAIAPDEPHKFDRRLEWDELSEENFFAALNSEPASLEEDDPCFEEALQDALEALKAAWDLPLLPVDNNLNRPFVDVWWPIRCHSAESLRQSFVSDSAGLADEIFDQLADSLLDRLCALGDQVLWEAFNKERTPGTMLLAHLGAAGDGSGPPVREHYERFIQSHRRNGLAPLLKEFPVLGRLIGTVLSLWFQGSVEMLQRICADRTVLQQCFAIPCGHHLKTVKQGLSDPHRGGRAVAVLEFADPNSTANSSMHVVYKPKDMAVDAAYQATLADLNTHSDLSPLRTLAIHNGNGYGYMEHVVHHLCANDKELTNFYFNAGRLTALLHLLGCTDCHHENLIACGDQLLLIDTETLLEADLPDHISDASSTTAQPKPSSLQKQFQRSVLRSGLLPQWMFLGESKLAIDISALGMSPPNKPERIALGWLGFNSDGMMPGRVSQPVEIPTSLPVGIGEVNPFDRFLEDFCDGFSMQSEALIKLRNRWLDVNGVLAHFAGLPRRIVLRATRVYFTIQRQQLEPTALRSPLAQALKLEQLTRSFLLAESKPLHWPIFAAEVKQMQHLDIPFFTHLIDADALQLGGLEQELPGFIQTSGLAAAYERLRNLDTDEIAFQLRLIRGAVEARELHTTPESSPTLPPPATPEALMSSSAETSLEAAKRIAHRLLELAIRDSQGQVEWLGMDLGADGESFSFGPVGLSLYGGSIGIAHLLQRLQAQQVSLMDADAIQTAILQPLVGLVDQPSDDGRRRWWRDQPLGLSGCGGTLLALTLQGEQAMANSLLAAALPRFIEADQQLDLIGGCAGLIGSLVQLGTESALQLALRAGDHLIAQQNEEGAWSSSSSQPGLLGFSHGTAGYAAALAHLHAFSADERYRTAAAAALAYERARFNKDAGNWPDYRSIGRDSDSDEPSFMASWCHGAPGIALGRACLWGTALWDEECTKEIGIGLQTTAAVSSVSTDHLCCGSLGLMVLLEMLSAGPWPIDNQLRSHCQDVAFQYRLQALQRCSAEPIKLRCFGTKEGLLVLPGFFTGLSGMGLALLEDDPSRAVVSQLISAGLWPTESASGSGSGSAMSEEQLKAFIAKVQADTSLQEQLKAEGADVVAIAKAAGFTITTEDLNSHRQNLTDDELEGVAGG
modifications: Enzyme-Leader-Fusion

output titre (number of phages eluted at the end of the round) (R1, 100 nM kallikrein): 2.7e6
output titre (number of phages eluted at the end of the round) (R2, 33 nM kallikrein): 2.7e5
difference in titre using 9.75 nM kallikrein and using 0 nM kallikrein: 36 fold
output titre (number of phages eluted at the end of the round) (R3, 0 nM kallikrein): 2.7e4
output titre (number of phages eluted at the end of the round) (R3, 9.75 nM kallikrein): 9.5e5
B3: CelfProcM15: C-terminal leaderA4.3 ProcM enzyme-leader fusion, 15-pair linker, used to modify leader-free SynLib1 (protein)
chain: MSEEQLKAFIAKVQADTSLQEQLKAEGADVVAIAKAAGFTITTEDLNSHRQNLTDDELEGVAGGSASGSGSGSAMESPSSWKTSWLAAIAPDEPHKFDRRLEWDELSEENFFAALNSEPASLEEDDPCFEEALQDALEALKAAWDLPLLPVDNNLNRPFVDVWWPIRCHSAESLRQSFVSDSAGLADEIFDQLADSLLDRLCALGDQVLWEAFNKERTPGTMLLAHLGAAGDGSGPPVREHYERFIQSHRRNGLAPLLKEFPVLGRLIGTVLSLWFQGSVEMLQRICADRTVLQQCFAIPCGHHLKTVKQGLSDPHRGGRAVAVLEFADPNSTANSSMHVVYKPKDMAVDAAYQATLADLNTHSDLSPLRTLAIHNGNGYGYMEHVVHHLCANDKELTNFYFNAGRLTALLHLLGCTDCHHENLIACGDQLLLIDTETLLEADLPDHISDASSTTAQPKPSSLQKQFQRSVLRSGLLPQWMFLGESKLAIDISALGMSPPNKPERIALGWLGFNSDGMMPGRVSQPVEIPTSLPVGIGEVNPFDRFLEDFCDGFSMQSEALIKLRNRWLDVNGVLAHFAGLPRRIVLRATRVYFTIQRQQLEPTALRSPLAQALKLEQLTRSFLLAESKPLHWPIFAAEVKQMQHLDIPFFTHLIDADALQLGGLEQELPGFIQTSGLAAAYERLRNLDTDEIAFQLRLIRGAVEARELHTTPESSPTLPPPATPEALMSSSAETSLEAAKRIAHRLLELAIRDSQGQVEWLGMDLGADGESFSFGPVGLSLYGGSIGIAHLLQRLQAQQVSLMDADAIQTAILQPLVGLVDQPSDDGRRRWWRDQPLGLSGCGGTLLALTLQGEQAMANSLLAAALPRFIEADQQLDLIGGCAGLIGSLVQLGTESALQLALRAGDHLIAQQNEEGAWSSSSSQPGLLGFSHGTAGYAAALAHLHAFSADERYRTAAAAALAYERARFNKDAGNWPDYRSIGRDSDSDEPSFMASWCHGAPGIALGRACLWGTALWDEECTKEIGIGLQTTAAVSSVSTDHLCCGSLGLMVLLEMLSAGPWPIDNQLRSHCQDVAFQYRLQALQRCSAEPIKLRCFGTKEGLLVLPGFFTGLSGMGLALLEDDPSRAVVSQLISAGLWPTESASGSGSGSGSGSGSGSGSGSTSGSGSGSAMSEEQLKAFIAKVQADTSLQEQLKAEGADVVAIAKAAGFTITTEDLNSHRQNLTDDELEGVAGG
modifications: Enzyme-Leader-Fusion
